Results taken from patent US20240279281A1, “Peptide Inhibitors of Interleukin-23 Receptor” (Janssen Pharmaceutica NV, priority 2023, published 2024).
Values belong to the binder of their own block, whether it stands above or below them. Starred links: 1 amine or outer side, 2 acyl side, 3 side chain; linkers in the order of their positions; H or OH if unused. Positions of bridges follow the written chain, without caps; N, C: chain ends. Non-standard residues stand in square brackets, D forms with d. No end group written: not given here. X1 = 3‑(7-(3-acetamidophenyl)-1H-indol-3-yl)‑2‑aminopropanoic acid, CC(=O)Nc1cccc(-c2cccc3c(CC(N[*:1])C(=O)[*:2])c[nH]c23)c1; AEF(G) = 2-amino-3-(4-(2-guanidinoethoxy)phenyl)propanoic acid, N=C(N)NCCOc1ccc(C[C@H](N[*:1])C(=O)[*:2])cc1; X10 = 2‑amino‑3‑(4-(2-guanidinoethoxy)phenyl)propanoic acid, N=C(N)NCCOc1ccc(CC(N[*:1])C(=O)[*:2])cc1; Trp(7-(3-AcNH-Ph)) = CC(=O)Nc1cccc(-c2cccc3c(C[C@H](N)C(=O)O)c[nH]c23)c1; N‑methyl‑N‑acetyllysine = N-methyl-N-acetyllysine; 2Nal(6-OH) = N[C@@H](Cc1ccc2cc(O)ccc2c1)C(=O)O; Trp(7-Me) = Cc1cccc2c(C[C@H](N)C(=O)O)c[nH]c12; d(hLys(Me3)) = C[N+](C)(C)CCCCC[C@@H](N)C(=O)O; dLys(Me3) = C[N+](C)(C)CCCC[C@@H](N)C(=O)O; AEF = NCCOc1ccc(C[C@H](N)C(=O)O)cc1; 3Pal = N[C@@H](Cc1cccnc1)C(=O)O; Lipidated = not defined here; NMeK = CN[C@@H](CCCCN)C(=O)O; Pen = CC(C)(S)[C@H](N)C(=O)O; αMeK = C[C@](N)(CCCCN)C(=O)O; αMeC = C[C@](N)(CS)C(=O)O; lipid = not defined here; Thp = NC1(C(=O)O)CCOCC1; Abu = CC[C@H](N)C(=O)O; PEG = not defined here; Sar = CNCC(=O)O

Biological target: T1, interleukin-23 receptor (IL-23R), Q5VWK5
T1 chain: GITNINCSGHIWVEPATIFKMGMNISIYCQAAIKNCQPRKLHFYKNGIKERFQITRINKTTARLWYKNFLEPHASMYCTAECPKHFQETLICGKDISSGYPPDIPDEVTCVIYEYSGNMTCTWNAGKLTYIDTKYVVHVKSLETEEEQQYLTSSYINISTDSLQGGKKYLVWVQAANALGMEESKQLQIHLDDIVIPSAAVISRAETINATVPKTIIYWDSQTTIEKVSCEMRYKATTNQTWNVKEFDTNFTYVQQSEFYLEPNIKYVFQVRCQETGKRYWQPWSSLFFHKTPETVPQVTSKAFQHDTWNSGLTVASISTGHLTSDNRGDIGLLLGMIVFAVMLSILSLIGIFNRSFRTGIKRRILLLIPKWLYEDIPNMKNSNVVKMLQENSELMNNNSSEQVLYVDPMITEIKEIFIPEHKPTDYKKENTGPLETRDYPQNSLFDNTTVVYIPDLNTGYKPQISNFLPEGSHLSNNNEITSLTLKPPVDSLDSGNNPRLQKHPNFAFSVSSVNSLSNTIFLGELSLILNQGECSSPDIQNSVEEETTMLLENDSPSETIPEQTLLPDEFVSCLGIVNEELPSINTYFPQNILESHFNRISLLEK
Experiment: cell-based or functional assay

B2: SEQ ID NO: 33 (peptide)
peptide: [dLys(Me3)][Pen]NT[Trp(7-(3-AcNH-Ph))]K(Ac)[Pen][AEF(G)][2Nal(6-OH)][Thp]EN[3Pal][Sar]
modifications: ends and bridges not checked
IL23R Reporter Assay IC50: < 10 nM
PBMC pSTAT3 IC50: < 10 pM

B5: SEQ ID NO: 29 (peptide)
peptide: R[Abu]NTWK(Ac)[αMeC][AEF][2Nal(6-OH)][Thp]K(Ac)N[3Pal][Sar]
modifications: ends and bridges not checked
IL23R Reporter Assay IC50: < 10 nM
PBMC pSTAT3 IC50: < 0.1 nM

B6: SEQ ID NO: 32 (peptide)
peptide: R[Pen]NT[Trp(7-Me)]K(Ac)[Pen][AEF(G)][2Nal(6-OH)][Thp]EN[3Pal][Sar]
modifications: ends and bridges not checked
IL23R Reporter Assay IC50: < 10 nM
PBMC pSTAT3 IC50: < 10 pM

B9: SEQ ID NO: 37 (peptide)
peptide: [dLys(Me3)][Pen]NT[X1]K(Ac)[Pen][5‑(4-(2-amino-2-carboxyethyl)phenoxy)‑N,N,N‑trimethylpentan‑1‑aminium][2‑amino‑3‑(6-hydroxynaphthalen-2-yl)propanoic acid][Thp]EN[3Pal][Sar]
modifications: ends and bridges not checked
IL23R Reporter Assay IC50: < 10 nM

B12: SEQ ID NO: 4 (peptide)
peptide: RCNT[Trp(7-Me)]K(Ac)[αMeC][AEF][2Nal(6-OH)][Thp]EN[3Pal][Sar]
modifications: ends and bridges not checked
IL23R Reporter Assay IC50: < 10 nM

B14: SEQ ID NO: 28 (peptide)
peptide: R[Abu]NTWK(Ac)[αMeC][AEF][2Nal(6-OH)][Thp]K(Ac)N[3Pal][Sar]
modifications: ends and bridges not checked
IL23R Reporter Assay IC50: < 10 nM

B16: SEQ ID NO: 35 (peptide)
peptide: R[Pen]NT[X1]K(Ac)[Pen][X10][2‑amino‑3‑(6-hydroxynaphthalen-2-yl)propanoic acid][Thp]EN[3Pal][Sar]
modifications: ends and bridges not checked
IL23R Reporter Assay IC50: < 10 nM
PBMC pSTAT3 IC50: < 0.1 nM

B17: SEQ ID NO: 24 (peptide)
peptide: [Pen]NT[Trp(7-Me)]K(Ac)[Pen][X10][2Nal(6-OH)][Thp]EN[3Pal][Sar]
modifications: ends and bridges not checked
IL23R Reporter Assay IC50: < 10 nM
PBMC pSTAT3 IC50: < 0.1 nM

B20: SEQ ID NO: 39 (peptide)
peptide: R[Pen]NT[X1]K(Ac)[Pen][5‑(4-(2-amino-2-carboxyethyl)phenoxy)‑N,N,N‑trimethylpentan‑1‑aminium][2‑amino‑3‑(6-hydroxynaphthalen-2-yl)propanoic acid][Thp]EN[3Pal][Sar]
modifications: not fully specified (bridges); ends and bridges not checked
IL23R Reporter Assay IC50: < 10 nM

B22: SEQ ID NO: 3 (peptide)
peptide: [Pen]NT[Trp(7-Me)]K(Ac)[Pen][AEF][2Nal(6-OH)][Thp]EN[3Pal][Sar]
modifications: ends and bridges not checked
IL23R Reporter Assay IC50: < 10 nM

More lines, now with the values ahead:

IL23R Reporter Assay IC50: > 100 nM
PBMC pSTAT3 IC50: < 1 nM
B1: SEQ ID NO: 189 (peptide)
peptide: [Pen]NT[Trp(7-Me)]K(Lipidated)[Pen][2‑amino‑3‑(4-(2-aminoethoxy)phenyl)propanoic acid][2‑amino‑3‑(6-hydroxynaphthalen-2-yl)propanoic acid][Thp]K(Ac)N[3Pal][Sar]
modifications: disulfide 1-6 (inferred); ends not checked; also: K5 lipidated lysine, lipid not given here

IL23R Reporter Assay IC50: < 10 nM
PBMC pSTAT3 IC50: < 0.1 nM
B3: SEQ ID NO: 290 (peptide)
peptide: [N‑amino‑O‑(2-(2-(methylamino)ethoxy)ethyl)‑D‑serine][Pen]NT[Trp(7-Me)][N‑methyl‑N‑acetyllysine][Pen][AEF][2Nal(6-OH)][Thp]DN[3Pal][Sar]
modifications: disulfide 2-7 (inferred); ends not checked

IL23R Reporter Assay IC50: > 100 nM
PBMC pSTAT3 IC50: > 1 nM
B4: SEQ ID NO: 222 (peptide)
peptide: R[Pen]NT[Trp(7-Me)]K(Ac)[Pen][2‑amino‑3‑(4-(2-aminoethoxy)phenyl)propanoic acid][2‑amino‑3‑(6-hydroxynaphthalen-2-yl)propanoic acid][Thp]K(Ac)N[3Pal][Sar]K(lipid)
modifications: disulfide 2-7 (inferred); ends not checked; also: Lys15 lipidated, lipid not given here

IL23R Reporter Assay IC50: < 10 nM
PBMC pSTAT3 IC50: < 0.1 nM
B7: SEQ ID NO: 219 (peptide)
peptide: R[Pen]NT[Trp(7-Me)]K(Ac)[Pen][2‑amino‑3‑(4-(2-aminoethoxy)phenyl)propanoic acid][2‑amino‑3‑(6-hydroxynaphthalen-2-yl)propanoic acid][Thp]K(Ac)N[3Pal][Sar]
modifications: disulfide 2-7 (inferred); ends not checked

IL23R Reporter Assay IC50: > 100 nM
PBMC pSTAT3 IC50: < 1 nM
B8: SEQ ID NO: 276 (peptide)
peptide: [Pen]K(lipid)T[Trp(7-Me)]K(Ac)[Pen][2‑amino‑3‑(4-(2-aminoethoxy)phenyl)propanoic acid][2‑amino‑3‑(6-hydroxynaphthalen-2-yl)propanoic acid][Thp]EN[3Pal][Sar]
modifications: disulfide 1-6 (inferred); ends not checked; also: K2: lipidated lysine

IL23R Reporter Assay IC50: < 10 nM
B10: SEQ ID NO: 303 (peptide)
peptide: [Pen]LT[Trp(7-Me)]K(lipid)[Pen]F[2Nal(6-OH)][αMeK]LN[3Pal][Sar]
modifications: disulfide 1-6 (inferred); ends not checked; also: Lys5 lipidated, lipid not given here

IL23R Reporter Assay IC50: > 100 nM
PBMC pSTAT3 IC50: < 1 nM
B11: SEQ ID NO: 188 (peptide)
peptide: [Pen]NT[Trp(7-Me)]K(Lipidated)[Pen][2‑amino‑3‑(4-(2-aminoethoxy)phenyl)propanoic acid][2‑amino‑3‑(6-hydroxynaphthalen-2-yl)propanoic acid][Thp]K(Ac)N[3Pal][Sar]
modifications: disulfide 1-6 (inferred); ends not checked; also: K5 lipidated lysine, lipid not given here

IL23R Reporter Assay IC50: < 10 nM
B13: SEQ ID NO: 304 (peptide)
peptide: [Pen]LT[Trp(7-Me)]K(Ac)[Pen]F[2Nal(6-OH)][αMeK]LN[3Pal][Sar]
modifications: disulfide 1-6 (inferred); ends not checked

IL23R Reporter Assay IC50: > 100 nM
PBMC pSTAT3 IC50: < 1 nM
B15: SEQ ID NO: 275 (peptide)
peptide: [Pen]NT[Trp(7-Me)]K(Ac)[Pen][2‑amino‑3‑(4-(2-aminoethoxy)phenyl)propanoic acid][2‑amino‑3‑(6-hydroxynaphthalen-2-yl)propanoic acid][Thp]K(Ac)N[3Pal][Sar]K(lipid)
modifications: disulfide 1-6 (inferred); ends not checked; also: K14: lipidated lysine

IL23R Reporter Assay IC50: > 100 nM
PBMC pSTAT3 IC50: < 1 nM
B18: SEQ ID NO: 278 (peptide)
peptide: [Pen]NT[Trp(7-Me)]K(Ac)[Pen][2‑amino‑3‑(4-(2-aminoethoxy)phenyl)propanoic acid][2‑amino‑3‑(6-hydroxynaphthalen-2-yl)propanoic acid][Thp]K(Ac)N[3Pal][Sar]K(lipid)
modifications: disulfide 1-6 (inferred); ends not checked; also: K14: lipidated lysine

IL23R Reporter Assay IC50: > 100 nM
PBMC pSTAT3 IC50: < 1 nM
B19: SEQ ID NO: 200 (peptide)
peptide: [Pen]NT[Trp(7-Me)]K(Lipidated)[Pen][2‑amino‑3‑(4-(2-aminoethoxy)phenyl)propanoic acid][2‑amino‑3‑(6-hydroxynaphthalen-2-yl)propanoic acid][Thp]K(PEG)N[3Pal][Sar]
modifications: disulfide 1-6 (inferred); ends not checked; also: lipid structure not given here, PEG size not given here

IL23R Reporter Assay IC50: > 100 nM
PBMC pSTAT3 IC50: < 1 nM
B21: SEQ ID NO: 187 (peptide)
peptide: [d(hLys(Me3))][Pen]NT[Trp(7-Me)]K(Lipidated)[Pen][2‑amino‑3‑(4-(2-aminoethoxy)phenyl)propanoic acid][2‑amino‑3‑(6-hydroxynaphthalen-2-yl)propanoic acid][Thp]K(Ac)N[3Pal][Sar]
modifications: disulfide 2-7 (inferred); ends not checked; also: K6 lipidated lysine, lipid not given here

IL23R Reporter Assay IC50: > 100 nM
PBMC pSTAT3 IC50: < 1 nM
B23: SEQ ID NO: 279 (peptide)
peptide: R[Pen]NT[Trp(7-Me)]K(Ac)[Pen][AEF][2Nal(6-OH)][Thp]EN[3Pal][NMeK](lipid)
modifications: disulfide 2-7 (inferred); not fully specified; ends not checked
